From the supplement of paper PMC10567573 come the findings set out here.

± gives the standard deviation.

The data set can be described thus: protein stability index of a GFP-peptide fusion (GPS, HEK-293T) (PSI 1-6); higher = more stable.
[1] abbreviates: treatment: DMSO, c terminus: a fixed tail appended.
Setting [2] is: treatment: MLN4924 1 uM, 8 h, c terminus: a fixed tail appended.
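Note: 24-mer peptide tiles fused after GFP, lentivirally expressed, FACS-sorted into six equal bins by GFP/DsRed ratio, decoded by Illumina sequencing, PSI is the read-weighted mean bin number.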

On to GRVHLVKEKTAKHFFALKVMSIPD [PRKX], for which the protein stability index reads like this: under setting [1], 1.87 ± 0.52; under setting [2], 2.38 ± 0.57.
The corresponding values for IQGQNKEMLAAACQMFLGKTEAEI [FLOT1] are 3.49 ± 0.15 and 3.42 ± 0.33.
The like results for RYTGTTPSPPPGSHYTSPSENMWN [CARM1] were, in that order, 3.48 ± 0.23 and 3.57 ± 0.23.
The corresponding values for CPPGGIHQVTVNESLLAPLNVELD [KRT71] are 4.63 ± 0.29 and 4.54 ± 0.23.
In the case of SASHRPCVNGDVDKPSEPASEEGS [SMG5], the protein stability index was found to be 5.49 ± 0.17 under setting [1] and 5.641 ± 0.046 under setting [2].
The like results for IQVLPKLSSSIIHEIDSILGNKPY [KCNAB2] were, in that order, 1.98 ± 0.27 and 2.28 ± 0.27.
In the case of RKGKDKENGSVSSSETPPPPPPPN [EIF5], the protein stability index reads like this: under setting [1], 5.15 ± 0.2; under setting [2], 5.22 ± 0.28.
The corresponding values for RRKCGQYWPLEKDSRIRFGFLTVT [PTPN9] are 2.3 ± 0.69 and 2.16 ± 0.47.
In the case of KMTDLLSRRLQLGSEENGRYFSLS [PCDHGC5], the protein stability index is, setting by setting: under setting [1], 2.41 ± 0.16; under setting [2], 2.47 ± 0.14.
The like results for PPGPDRLPSNLVQYYDDEKKTWKI [KLHL14] were, in that order, 4.87 ± 0.082 and 4.7 ± 0.33.
For AMFTGGMKEQDLMCIKLHGVSKVG [KLHL13], the protein stability index is, setting by setting: under setting [1], 2.54 ± 0.42; under setting [2], 2.58 ± 0.33.
The like results for SFLWQRGRKFLQKHLNASNPTEPA [TOR1AIP2] were, in that order, 2.86 ± 0.13 and 3.05 ± 0.17.
Take AQTIPTKDRLEGLLAFKEKRPPRY [AUH]: the protein stability index was 3.73 ± 0.24 under setting [1] and 4.06 ± 0.24 under setting [2].
Take LQEKSQCALEEYVRSQYPNQPTRF [NR2F2]: the protein stability index was found to be 3.16 ± 0.25 under setting [1] and 3.24 ± 0.24 under setting [2].
With REVMESAVGNSSGSGQNEESPRKR [FBXO28], the protein stability index under setting [1] is 5.51 ± 0.14 and the protein stability index under setting [2] is 5.49 ± 0.38.
The corresponding values for EESGAQLLLEMLTFNPHKRISAFR [CDK4] are 2.21 ± 0.15 and 2.23 ± 0.18.
Turning to DNSDYDYSALSCTSDASFHPAFLP [KCNG1], the protein stability index under setting [1] amounted to 3.59 ± 0.26 and the protein stability index under setting [2] was found to be 3.46 ± 0.32.
Take GSGGTRGPPSRGGHMDDGGYSMNF [RBMX]: the protein stability index reads like this: under setting [1], 3.96 ± 0.24; under setting [2], 4 ± 0.43.
With ASENHGCEHECVNADGSYLCQCHE [MATN2], the protein stability index was 5.46 ± 0.17 under setting [1] and 5.49 ± 0.38 under setting [2].
The corresponding values for MMLFNDGTFQVNFYHDHTKIIICS [PLK2] are 2.79 ± 0.83 and 2.88 ± 0.86.
As to FKKGKNPTGLLALQQIADFMTTNV [ADD1], the protein stability index came to 2 ± 0.23 under setting [1] and 2.61 ± 0.34 under setting [2].
The like results for SNATATPSVRKKAGSFSRRLIKRF [C2CD2L] were, in that order, 3.47 ± 0.18 and 3.61 ± 0.18.
For the sequence RMTGGRPPLPPPDDPATLGPHLGL [DYRK1B], the protein stability index worked out at 4.2 ± 0.2 under setting [1] and 4.26 ± 0.18 under setting [2].
The corresponding values for DLIGLPWVCFIYTIMSLASLLFVV [SLC2A12] are 4.15 ± 0.79 and 3.95 ± 0.71.
In turn, DFVLEMNTAKSTSRVTAFLDDLSQ [NLN] had a protein stability index under setting [1] of 2.75 ± 0.26 and a protein stability index under setting [2] of 2.72 ± 0.33.
The like results for QRRRRVENAGGSPSPEPAGRRAAL [RSAD1] were, in that order, 5.11 ± 0.4 and 5.15 ± 0.27.
The like results for REAVSQLRELCRLWLRPETHTKEQ [ZNF24] were, in that order, 2.8 ± 0.32 and 3.03 ± 0.41.
In the case of NKRKTYTESYIARPDGDCASSLNG [ZC2HC1A], the protein stability index by setting is: under setting [1], 4.18 ± 0.23; under setting [2], 4.44 ± 0.3.
The like results for KLATEAGVEVIVRISHTLYDLDKI [CRY1] were, in that order, 2.97 ± 0.32 and 3.13 ± 0.71.
The corresponding values for GGGGGGGGGGGGGGTSSNNSEEEE [ANKRD17] are 5.42 ± 0.23 and 5.41 ± 0.31.
The corresponding values for GDGLLVGSEKVTMQNLNDRLASYL [KRT16] are 2.66 ± 0.17 and 2.78 ± 0.32.
In turn, EQPFIPVEVLVDLFLKEGACDELF [PRAME] showed a protein stability index under setting [1] of 2.39 ± 0.16 and a protein stability index under setting [2] of 2.39 ± 0.35.
The corresponding values for RIKIWDVYTGKLLLNLVDHTEVVR [WSB1] are 2.61 ± 0.59 and 2.57 ± 0.34.
As to ADQWKSSNKSLVEALGLEAEGAVP [RHOBTB1], the protein stability index is, setting by setting: under setting [1], 5.1 ± 0.17; under setting [2], 4.83 ± 0.22.
In the case of PALETQPQGDEEDIASRYPTLWTE [SMOC2], the protein stability index under setting [1] is 4.78 ± 0.34 and the protein stability index under setting [2] came out at 4.85 ± 0.54.
The like results for YPHFSHRPSTLQAASTPQAEEDWT [OAS1] were, in that order, 4.52 ± 0.27 and 4.76 ± 0.23.
RTPRLMPDKESMYYPRVQHYRELL [GDAP1]: the protein stability index by setting is: under setting [1], 2.52 ± 0.17; under setting [2], 2.61 ± 0.27.
The like results for KAILEQNFRDLVRDLEKQKEEVRA [TRIM29] were, in that order, 4.43 ± 0.31 and 4.48 ± 0.24.
The like results for MASSAASSEHFEKLHEIFRGLHED [VTI1B] were, in that order, 4.29 ± 0.16 and 4.28 ± 0.1.
On to DCVDGLFKEVKEKFKGWVSYSTSE [DLC1], for which the protein stability index is, setting by setting: under setting [1], 3.04 ± 0.5; under setting [2], 3.33 ± 0.3.
The corresponding values for AGNDDSFGSLPSPKELSSFSFSMK [DLC1] are 3.75 ± 0.2 and 3.87 ± 0.21.
Consider KALAIILHLLYLLEKVECTPSQEH [FEM1A], for which the protein stability index by setting is: under setting [1], 1.96 ± 0.35; under setting [2], 1.99 ± 0.13.
The corresponding values for HDSANCELPLLTPCSKAVMSQALK [ETS2] are 3.34 ± 0.28 and 3.45 ± 0.24.
The like results for TFFLRTDAETPPRFTRTPVDQTGV [PTPRD] were, in that order, 3.42 ± 0.16 and 3.28 ± 0.45.
EEADDTRYTQGTGGDEVDDSVSVN [ZC3H15]: the protein stability index was found to be 5.63 ± 0.19 under setting [1] and 5.62 ± 0.19 under setting [2].
On to SSRQTRPILKEQSSSSFSQGQSS [KRT16], for which the protein stability index (treatment: DMSO, c terminus: native) turned out to be 5.3 ± 0.29 and the protein stability index (treatment: MLN4924 1 uM, 8 h, c terminus: native) is 5.33 ± 0.25.
LQEQHLSSPQGVQLDIASQSLDQE [BCL2L13]: the protein stability index under setting [1] came out at 5.38 ± 0.28 and the protein stability index under setting [2] was found to be 5.56 ± 0.21.
Take LLGFNLTFVFLASLLVLIEPVAAG [CLCN6]: the protein stability index under setting [1] came to 3.45 ± 0.23 and the protein stability index under setting [2] is 3.14 ± 0.36.
The corresponding values for VNMVDVAKALNRPPTYPTKYFGCE [EIF5] are 2.56 ± 0.19 and 2.45 ± 0.18.
With AGTSSHGCWAWPLAGLSVGRSSLT [PXN], the protein stability index reads like this: under setting [1], 2.5 ± 0.26; under setting [2], 2.61 ± 0.26.
The like results for MRGRIYLEPPTMRKKRLLDRKVLL [GOLPH3L] were, in that order, 2.34 ± 0.27 and 2.47 ± 0.29.
For the sequence LCEPDPVHFSEAIEKFIREPSLKA [ALG2], the protein stability index is, setting by setting: under setting [1], 3.81 ± 0.19; under setting [2], 3.91 ± 0.19.
The corresponding values for ILLDPILMFFIMAAMLSMVKYNSC [POMT2] are 3.27 ± 0.18 and 3.2 ± 0.05.
With VVKKIALREIRMLKQLKHPNLVNL [CDKL4], the protein stability index under setting [1] came to 2.2 ± 0.76 and the protein stability index under setting [2] is 2.63 ± 0.11.
Consider ELGLLIFFLFIGVILFSSAVYFAE [KCNA1], for which the protein stability index reads like this: under setting [1], 2.04 ± 0.53; under setting [2], 2.06 ± 0.37.
SRLLLLEQELKTVTYSLLKRLKER [SMAD6]: the protein stability index by setting is: under setting [1], 2.77 ± 0.34; under setting [2], 2.55 ± 0.49.
The like results for KRFVAMKVVKSAQHYTETALDEIK [SRPK2] were, in that order, 2.97 ± 0.51 and 2.92 ± 0.38.
The like results for QNVARIPEFELLWKDIIHNPQALS [INTS3] were, in that order, 2.47 ± 0.34 and 2.53 ± 0.3.
Consider VQTPPGGSEVVPVISPMYQLHKPL [IKZF1], for which the protein stability index stood at 3.77 ± 0.4 under setting [1] and 3.53 ± 0.23 under setting [2].
Turning to ESSQTDLKLVAHPRAKSKVWKYFG [ZBED1], the protein stability index was found to be 3.02 ± 0.31 under setting [1] and 3.42 ± 0.27 under setting [2].
With PRRRRPGCYAYRQNPEAIAAAAMY [MYORG], the protein stability index was 2.78 ± 0.19 under setting [1] and 2.9 ± 0.34 under setting [2].
The like results for KYNHAACFGLQPGCLLPDGSRMMA [NLN] were, in that order, 2.59 ± 0.27 and 2.55 ± 0.33.
Consider EEDSFYRSSYPQQQGLGASYRTES [TBX5], for which the protein stability index is 4.37 ± 0.2 under setting [1] and 4.22 ± 0.15 under setting [2].
The like results for SSSTLMSSELETTSFFDSDEDDST [DVL3] were, in that order, 5.54 ± 0.38 and 5.61 ± 0.14.
The like results for LQTLLYFLSDVTAAVKENQMTPTN [DLC1] were, in that order, 2.04 ± 0.52 and 2.12 ± 0.83.
Consider FSSITDSTMSLNIITVTLNMEKYN [DVL3], for which the protein stability index runs as follows: under setting [1], 2.93 ± 0.63; under setting [2], 2.75 ± 0.57.
The corresponding values for ATNSSWVVVFKALVTTHHLMVHGN [SNAP91] are 3.43 ± 0.31 and 3.4 ± 0.28.
Regarding YTPDLPRADVDHAIEKAFQLWSNV [MMP1], the protein stability index runs as follows: under setting [1], 2.6 ± 0.73; under setting [2], 2.86 ± 0.77.
The like results for QQGLGASYRTESAQRQACMYASSA [TBX5] were, in that order, 3.8 ± 0.17 and 3.82 ± 0.2.
The like results for TQMIREGGARSLWRGNGINVLKIA [SLC25A25] were, in that order, 2.72 ± 0.25 and 2.77 ± 0.21.
With KHLTARVLCLIVLPLALYTATFAV [POMT2], the protein stability index was determined as 3.38 ± 0.42 under setting [1] and 3.15 ± 0.58 under setting [2].
Turning to FAHSSNLLRHQRIHTGERPYKCPE [ZNF263], the protein stability index stood at 2.99 ± 0.28 under setting [1] and 3.35 ± 0.36 under setting [2].
